Data reported in the supplement of paper PMC10567573.
± gives the standard deviation.

Experiment: protein stability index of a GFP-peptide fusion (GPS, HEK-293T) (PSI 1-6); higher = more stable
Conditions: c terminus: a fixed tail appended
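Further: 24-mer peptide tiles fused after GFP, lentivirally expressed, FACS-sorted into six equal bins by GFP/DsRed ratio, decoded by Illumina sequencing, PSI is the read-weighted mean bin number.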

Row | Sequence | protein stability index (treatment: DMSO) | protein stability index (treatment: MLN4924 1 uM, 8 h)
1 | LITIATFQIAANLSMERYALVFGV [SLC19A2] | 3.02 ± 0.15 | 3.12 ± 0.59
2 | QGLRPRTVSSPIPYTPSPSSSRPI [CCDC6] | 4.64 ± 0.22 | 4.7 ± 0.16
3 | DDDDNLPQLKKESELPFVPNYLAN [ANKRD40] | 4.77 ± 0.12 | 4.84 ± 0.076
4 | RCVLVFEQVRFLMKSYSFLREAVP [SOAT2] | 2.54 ± 0.42 | 2.8 ± 0.38
5 | GYNLTSISESMAACTRSLLGDPPP [HDAC6] | 3.52 ± 0.38 | 3.4 ± 0.2
6 | SAAQTDPTTGYRRLLRFSSQIHNN [LOXL2] | 3.1 ± 0.2 | 3.23 ± 0.17
7 | ARSRALRRRWCPAGIMLLALVCLL [SPACA3] | 2.23 ± 0.29 | 2.23 ± 0.19
8 | RQIRTNWATRKPPAPKSTYECRCI [TIA1] | 2.56 ± 0.17 | 2.85 ± 0.45
9 | LAKTGEGSYGVVFKCRNKTSGQVV [CDKL4] | 2.72 ± 0.31 | 2.75 ± 0.2
10 | EQIHLLLSSQCFSNISRPRDNPMC [M1AP] | 2.25 ± 0.43 | 2.33 ± 0.25
11 | IEEYMVHVEEHFQLLARRMQVDKK [FUT8] | 3.06 ± 0.35 | 3.2 ± 0.27
12 | QKTLQVKCQHYKKKRTEQEETIAS [CEP70] | 4.33 ± 0.34 | 4.64 ± 0.2
13 | PAIIFEDANLDECIPATVRSSFAN [ALDH8A1] | 3.69 ± 0.15 | 3.72 ± 0.2
14 | HTRSPYSTFYPPYHSPELTTPPGH [NEUROD6] | 3.23 ± 0.14 | 3.18 ± 0.15
15 | FLSLDIPIGELYGLSESSGPHTIS [ACSBG2] | 2.39 ± 0.4 | 2.47 ± 0.36
16 | PTPPGQYFYPRGGGSGGGAGGAGG [JUNB] | 4.81 ± 0.15 | 4.5 ± 0.16
17 | MAPVMAHVDPEEPWSPCSARFITD [ADAMTS4] | 3.76 ± 0.4 | 3.85 ± 0.37
18 | ILFSLPPALDWDSVHVPGPHAMTI [PTPN9] | 2.66 ± 0.42 | 2.35 ± 0.62
19 | LHSLDDFYIGKYFGGVLEYFMIQA [RHOBTB3] | 2.78 ± 0.37 | 2.8 ± 0.63
20 | LNELERLSNLVGKPSENHPLHNSG [MED27] | 4.06 ± 0.25 | 4.31 ± 0.24
21 | AAEMYQRGRAVLREAGFHQYEVSN [RSAD1] | 3.32 ± 0.3 | 3.29 ± 0.24
22 | FPAKYIYDPWNAPEGIQKVAKCLI [CRY1] | 2.85 ± 0.39 | 2.43 ± 0.32
23 | GVYGLQRNLLVENIIDIYKQESTR [TRIM55] | 2.61 ± 0.47 | 2.95 ± 0.49

Row | Sequence | protein stability index (treatment: DMSO) | protein stability index (treatment: MLN4924 1 uM, 8 h)
24 | KCRMEESNAERGTAEPFPRLHNLY [CBY2] | 2.85 ± 0.27 | 2.78 ± 0.15
25 | QSCARAVVPSYIPLVKKHCDDSFT [CPOX] | 2.73 ± 0.2 | 2.71 ± 0.27
26 | LEDELDKSVQGTGLAFIAFTEAMT [SLC6A17] | 2.73 ± 0.35 | 2.82 ± 0.51
27 | EAAEPPKTPPSSCDSTNAAIAKQA [KMT5A] | 5.42 ± 0.29 | 5.34 ± 0.13
28 | EVSQQDPSHGEVGEHKDRIERQWG [ZSCAN9] | 4.69 ± 0.18 | 4.95 ± 0.15
29 | FPFQAMVQFHRHHGQEGSILVTKV [GMPPB] | 2.22 ± 0.37 | 2.07 ± 0.15
30 | SLSYTVLIVGRIAIGVSISLSSIA [SLC2A12] | 3.02 ± 0.43 | 3.37 ± 0.23
31 | RVGKWHQDFPVKKRKKLSTWKQEL [ZNF75A] | 2.7 ± 0.29 | 2.92 ± 0.4
32 | ETDDPRRYQKYGYIGTHEYPHFSH [OAS1] | 2.88 ± 0.15 | 3 ± 0.19
33 | QAVCGKCSSKRSSYPVMGFEFQVR [WDFY1] | 2.16 ± 0.23 | 2.34 ± 0.44
34 | GDHERAIDFSPYLEPLGAPQAPAP [CEBPB] | 4.56 ± 0.16 | 4.55 ± 0.24
35 | KLTREQEELEEALEVERQENEQRR [MNAT1] | 5.59 ± 0.18 | 5.45 ± 0.27
36 | AYQHSGHLESKDINQEELRALEEV [C10orf62] | 5.41 ± 0.29 | 5.4 ± 0.17
37 | ENMDLNKIDDLMQEITEQQDIAQE [CHMP4C] | 5.6 ± 0.27 | 5.4 ± 0.24
38 | MLDMKVNPIQGLASKWDYEKNEWK [COX4I1] | 3.75 ± 0.18 | 3.65 ± 0.21
39 | AIVSCTPVHLIDKLPLPVTIKSHL [RAB40C] | 2.18 ± 0.24 | 2.08 ± 0.19
40 | DKNLTEREVFNEIYPVWTYSYLVL [SLC19A2] | 2.81 ± 0.64 | 2.65 ± 0.46
41 | PQLKKESELPFVPNYLANPAFPFI [ANKRD40] | 2.82 ± 0.34 | 2.87 ± 0.085
42 | GRARFTTYEVRMRTNLPIFKLKES [SNX12] | 2.27 ± 0.11 | 2.17 ± 0.22
43 | ALREENRMLSKENKILQVFWEEHK [CBY2] | 3.19 ± 0.12 | 3.28 ± 0.3
44 | RSLQDGTREGFGHSTSLKVPLARS [LCOR] | 4.38 ± 0.27 | 4.37 ± 0.12
45 | SNEWKTVVGGAMFFIGFTALVIMW [COX4I1] | 3.09 ± 0.14 | 3.06 ± 0.27
46 | LFAPLKLQMEFKAVQQVQRLPFLS [POMP] | 2.51 ± 0.82 | 2.46 ± 0.75

Row | Sequence | protein stability index (treatment: DMSO) | protein stability index (treatment: MLN4924 1 uM, 8 h)
47 | EEPNGQIQGYRVYYTMDPTQHVNN [PTPRD] | 3.18 ± 0.19 | 3.17 ± 0.34
48 | LSDEDDGFVDLLDGENLKNEEETP [CDC25A] | 5.48 ± 0.33 | 5.4 ± 0.31
49 | DYVDRGYYSVETVTLLVALKVRYR [PPP2CA] | 2.74 ± 0.46 | 2.47 ± 0.6
50 | LKERCAQDACQAQAREKELLELQS [CCDC89] | 4.1 ± 0.26 | 4 ± 0.51
51 | PIMAKEGQLYAMELQGFWMDIGQP [GMPPB] | 2.23 ± 0.25 | 2.14 ± 0.31
52 | GVRDSGSPPLHANTSLHVFVLDEN [PCDHGC5] | 3.51 ± 0.21 | 3.51 ± 0.24
53 | LEEFQLALKHYVESASSQSGCLRI [NECAB1] | 2.21 ± 0.36 | 2.16 ± 0.17
54 | TVFYIPEDHKPGTFPKALTNGSFS [DLC1] | 2.86 ± 0.14 | 3.11 ± 0.26
55 | GFLLRYAVIKSNHSYCRMFLQRGA [ASB7] | 2.6 ± 0.37 | 2.34 ± 0.38
56 | RFIHLVTGCVLGSSGKVLPKWGWE [POMT2] | 3.51 ± 1.3 | 3.15 ± 0.63
57 | EDTTEEAQRRRMDEISDHAKVLTL [EIF5] | 5.24 ± 0.11 | 5.18 ± 0.2
58 | YDRRVIRGNTYALQTGPLLGRPDS [RSPH3] | 3.29 ± 0.24 | 3.56 ± 0.25
59 | RITGLSPGRSALIVAVLCYINLLN [SPNS1] | 2.35 ± 0.47 | 2.14 ± 0.29
60 | GQPFNSDDRNTACHHGLVADSLQA [DLC1] | 4.49 ± 0.2 | 4.63 ± 0.1
61 | GGWFCEGSFNGSEKETMQFLNDRL [KRT36] | 3.27 ± 0.23 | 3.17 ± 0.41
62 | VQGPGVVGEFPIISPGRVYEYTSC [FBXO3] | 2.72 ± 0.52 | 3 ± 0.32
63 | EKRPLFLAPDFDRWLDESDAEMEL [HACD3] | 4.45 ± 0.11 | 4.64 ± 0.068
64 | RLRVELECEEGELSFYDAERHCHL [TRIM35] | 3.66 ± 0.17 | 3.75 ± 0.075
65 | PSRVHASEVESAVWYVKKFGRYLE [FBXO39] | 2.42 ± 0.16 | 2.27 ± 0.5
66 | MRPTLIDLLPTFRHTLQKLTCEFN [FBXO39] | 2.35 ± 0.31 | 2.44 ± 0.54
67 | RDLIPPHVNFSHLTTKDYMEMYNV [SLC6A17] | 3.04 ± 0.28 | 3.23 ± 0.17
68 | KQQENATSCSLELIGDLIGHSSSV [WDR41] | 3.02 ± 0.37 | 3.17 ± 0.11
69 | TQHLPRECLPENLGGYVKIDLATW [PTPN9] | 2.34 ± 0.4 | 2.31 ± 0.41

Row | Sequence | protein stability index (treatment: DMSO) | protein stability index (treatment: MLN4924 1 uM, 8 h)
70 | REVEARYALQMEQLNGILLHLESE [KRT18] | 2.98 ± 0.63 | 3.16 ± 0.53
71 | EGPDLVPAALGSLTTAQIARSVWR [HES6] | 3.33 ± 0.39 | 3.59 ± 0.34
72 | NPIQKEEDEGVDLSEGSSNEDEDL [SPANXN3] | 4.96 ± 0.43 | 4.95 ± 0.39
73 | KVRPSHKRCIVILREIPETTPIEE [LARP4] | 2.59 ± 0.21 | 2.58 ± 0.35
74 | NSLDTTSWAWRGPGVLKVLWLTAS [LPCAT4] | 2.43 ± 0.62 | 2.25 ± 0.47
75 | ASGSFPSQVTATSGNGDFGDWSAF [CLINT1] | 3.4 ± 0.23 | 3.87 ± 0.12
76 | HKACEVAPLQSVFQGQKTELNNCI [TRIM63] | 3.78 ± 0.12 | 3.67 ± 0.41
77 | RNVRERIAKNLVEKGILTTEKQNF [GOLPH3L] | 3.73 ± 0.22 | 3.82 ± 0.2
78 | RFLDYEMQNSNECKRNFVAVYDGS [NETO1] | 2.96 ± 0.24 | 3.31 ± 0.85
79 | SVAPMNVRRGLAGATTLGDMIYVS [KLHL12] | 2.78 ± 0.53 | 2.96 ± 0.5
80 | RAILYPCHGMSSQLVRYSADGLLQ [GALNT9] | 2.69 ± 0.22 | 2.76 ± 0.27
81 | LGKTEQGFENMDFFTLDLEHIADA [TRIM63] | 3.85 ± 0.21 | 3.8 ± 0.12
82 | IFMLCTLVLAIPLLLILVSYVHIL [OR10K2] | 3.35 ± 0.26 | 3.18 ± 0.36
83 | VGITVLNLCALSVDRYRAVASWSR [EDNRA] | 2.86 ± 0.66 | 2.87 ± 0.6
84 | MEKYEKLAKTGEGSYGVVFKCRNK [CDKL4] | 3.78 ± 0.19 | 3.67 ± 0.26
85 | SAPATAKENAAAPSPVRAPAPSPA [PALM] | 5.18 ± 0.21 | 5.34 ± 0.17
86 | LEETEPPLEPEDALSDAEFEGEGD [P3H4] | 5.49 ± 0.33 | 5.55 ± 0.17
87 | RVLSPLHRGPSGHTEASAQRSHMG | 4.1 ± 0.063 | 4.19 ± 0.16
88 | NPTSAPGSRLAEFGAAGVNRLSIG [RSAD1] | 3.87 ± 0.072 | 3.64 ± 0.28
89 | RHWHRPVLMAVSVHSERKLLPLVT [SCNN1D] | 2.23 ± 0.37 | 2.11 ± 0.26
